{"source": "patent US20220306765A1", "about": "(SUZHOU TRANSCENTA THERAPEUTICS, published 2022)", "key": {"[1]": {"target": "T1, human CLDN18.2 (human)", "T1 construct": "also called hCLDN18.2; Claudin-18 splice variant 2", "experiment": "FACS, NUGC4 cells"}, "[2]": {"target": "human CLDN18.2-mRFP Q33A (human)", "experiment": "FACS, transfected HEK293, 10 µg/ml antibody;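 further: antibody binding detected by flow cytometry with FITC-labelled anti-human IgG secondary, gated on RFP-positive cells, mutant signal relative to wild-type CLDN18.2-mRFP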"}, "[3]": {"target": "human CLDN18.2-mRFP R64A (human)", "sequence (chain, as listed by the source R64A R64A limits assumed)": "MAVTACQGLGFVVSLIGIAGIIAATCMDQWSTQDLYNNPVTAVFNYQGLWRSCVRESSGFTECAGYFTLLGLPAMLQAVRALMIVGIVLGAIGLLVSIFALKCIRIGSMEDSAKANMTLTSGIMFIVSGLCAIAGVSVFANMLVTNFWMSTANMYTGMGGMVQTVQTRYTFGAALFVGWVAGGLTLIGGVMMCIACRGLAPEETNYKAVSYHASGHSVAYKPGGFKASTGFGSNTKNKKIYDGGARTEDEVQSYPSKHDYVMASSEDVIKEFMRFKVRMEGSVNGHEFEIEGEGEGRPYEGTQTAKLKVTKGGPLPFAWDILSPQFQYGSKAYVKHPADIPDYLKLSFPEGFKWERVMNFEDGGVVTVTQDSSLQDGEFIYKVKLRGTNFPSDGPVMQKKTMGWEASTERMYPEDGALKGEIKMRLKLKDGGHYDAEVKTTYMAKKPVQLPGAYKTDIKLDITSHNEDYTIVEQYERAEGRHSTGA", "experiment": "FACS, transfected HEK293, 10 µg/ml antibody"}, "[4]": {"target": "human CLDN18.2-mRFP L49A (human)", "experiment": "FACS, transfected HEK293, 10 µg/ml antibody"}, "[5]": {"target": "human CLDN18.2-mRFP N45A (human)", "sequence (chain, as listed by the source N45A N45A limits assumed)": "as the sequence (chain, as listed by the source R64A R64A limits assumed) above, with N45A, A64R counted along it", "experiment": "FACS, transfected HEK293, 10 µg/ml antibody"}, "[6]": {"target": "human CLDN18.2-mRFP Q47A (human)", "experiment": "FACS, transfected HEK293, 10 µg/ml antibody"}, "[7]": {"target": "human CLDN18.2-mRFP Y66A (human)", "experiment": "FACS, transfected HEK293, 10 µg/ml antibody"}, "[8]": {"target": "human CLDN18.2-mRFP Y36A (human)", "experiment": "FACS, transfected HEK293, 10 µg/ml antibody"}, "[9]": {"target": "human CLDN18.2-mRFP F67A (human)", "sequence (chain, as listed by the source F67A F67A limits assumed)": "as the sequence (chain, as listed by the source R64A R64A limits assumed) above, with A64R, F67A counted along it", "experiment": "FACS, transfected HEK293, 10 µg/ml antibody"}, "[10]": {"target": "human CLDN18.2-mRFP L69A (human)", "sequence (chain, as listed by the source L69A L69A limits assumed)": "as the sequence (chain, as listed by the source R64A R64A limits assumed) above, with A64R, L69A counted along it", "experiment": "FACS, transfected HEK293, 10 µg/ml antibody"}, "[11]": {"target": "human CLDN18.2-mRFP V40A (human)", "experiment": "FACS, transfected HEK293, 10 µg/ml antibody"}, "[12]": {"target": "human CLDN18.2-mRFP E56A (human)", "experiment": "FACS, transfected HEK293, 10 µg/ml antibody"}, "[13]": {"target": "human CLDN18.2-mRFP S31A (human)", "experiment": "FACS, transfected HEK293, 10 µg/ml antibody"}, "[14]": {"target": "human CLDN18.2-mRFP T61A (human)", "experiment": "FACS, transfected HEK293, 10 µg/ml antibody"}, "[15]": {"target": "human CLDN18.2-mRFP N37A (human)", "experiment": "FACS, transfected HEK293, 10 µg/ml antibody"}, "[16]": {"target": "human CLDN18.2-mRFP E62A (human)", "experiment": "FACS, transfected HEK293, 10 µg/ml antibody"}, "[17]": {"target": "human CLDN18.2-mRFP F44A (human)", "sequence (chain, as listed by the source F44A F44A limits assumed)": "as the sequence (chain, as listed by the source R64A R64A limits assumed) above, with F44A, A64R counted along it", "experiment": "FACS, transfected HEK293, 10 µg/ml antibody"}, "[18]": {"target": "human CLDN18.2-mRFP S52A (human)", "experiment": "FACS, transfected HEK293, 10 µg/ml antibody"}, "[19]": {"target": "human CLDN18.2-mRFP Y46A (human)", "experiment": "FACS, transfected HEK293, 10 µg/ml antibody"}, "[20]": {"target": "human CLDN18.2-mRFP T32A (human)", "sequence (chain, as listed by the source T32A T32A limits assumed)": "as the sequence (chain, as listed by the source R64A R64A limits assumed) above, with T32A, A64R counted along it", "experiment": "FACS, transfected HEK293, 10 µg/ml antibody"}, "[21]": {"target": "human CLDN18.2-mRFP R80A (human)", "experiment": "FACS, transfected HEK293, 10 µg/ml antibody"}, "[22]": {"target": "human CLDN18.2-mRFP L70A (human)", "sequence (chain, as listed by the source L70A L70A limits assumed)": "as the sequence (chain, as listed by the source R64A R64A limits assumed) above, with A64R, L70A counted along it", "experiment": "FACS, transfected HEK293, 10 µg/ml antibody"}, "[23]": {"target": "human CLDN18.2-mRFP L35A (human)", "experiment": "FACS, transfected HEK293, 10 µg/ml antibody"}, "[24]": {"target": "human CLDN18.2-mRFP M75A (human)", "experiment": "FACS, transfected HEK293, 10 µg/ml antibody"}, "[25]": {"target": "human CLDN18.2-mRFP S57A (human)", "experiment": "FACS, transfected HEK293, 10 µg/ml antibody"}, "[26]": {"target": "human CLDN18.2-mRFP S58A (human)", "experiment": "FACS, transfected HEK293, 10 µg/ml antibody"}, "[27]": {"target": "human CLDN18.2-mRFP V43A (human)", "experiment": "FACS, transfected HEK293, 10 µg/ml antibody"}, "[28]": {"target": "human CLDN18.2-mRFP V54A (human)", "experiment": "FACS, transfected HEK293, 10 µg/ml antibody"}, "[29]": {"target": "T2, human CLDN18.2-mRFP1, wild-type (human)", "T2 construct": "human CLDN18.2 (amino acid 1-261) fused to mRFP1 (amino acid 1-225), transiently expressed in HEK293 cells; also called wild-type human CLDN18.2-mRFP", "experiment": "FACS, transfected HEK293, 10 µg/ml antibody"}, "[30]": {"target": "human CLDN18.2-mRFP V79A (human)", "sequence (chain, as listed by the source V79A V79A limits assumed)": "as the sequence (chain, as listed by the source R64A R64A limits assumed) above, with A64R, V79A counted along it", "experiment": "FACS, transfected HEK293, 10 µg/ml antibody"}, "[31]": {"target": "human CLDN18.2-mRFP T41A (human)", "sequence (chain, as listed by the source T41A T41A limits assumed)": "as the sequence (chain, as listed by the source R64A R64A limits assumed) above, with T41A, A64R counted along it", "experiment": "FACS, transfected HEK293, 10 µg/ml antibody"}, "[32]": {"target": "human CLDN18.2-mRFP F60A (human)", "experiment": "FACS, transfected HEK293, 10 µg/ml antibody"}, "[33]": {"target": "human CLDN18.2-mRFP T68A (human)", "experiment": "FACS, transfected HEK293, 10 µg/ml antibody"}, "[34]": {"target": "human CLDN18.2-mRFP D34A (human)", "sequence (chain, as listed by the source D34A D34A limits assumed)": "as the sequence (chain, as listed by the source R64A R64A limits assumed) above, with D34A, A64R counted along it", "experiment": "FACS, transfected HEK293, 10 µg/ml antibody"}, "[35]": {"target": "human CLDN18.2-mRFP Q77A (human)", "experiment": "FACS, transfected HEK293, 10 µg/ml antibody"}, "[36]": {"target": "T3, human CLDN18.1 (human, UniProt P56856 1-261)", "T3 construct": "on HEK293-CLDN18.1 cells; also called Claudin-18 splice variant 1; NP_057453.1", "experiment": "FACS, HEK293-CLDN18.1 cells"}}}
{"binder": "59A9-C (antibody, human IgG1, V domains shown, also called chimeric 59A9) VH: QITQKESGPGILQPSQTLSLTCSLSGFSLSTYFIGVGWIRQPSGKGLEWLAHIWWNDNKYYNTALKSRLTISKDTSNNQVFLKIASVDTADTATYYCARMGSGAWFTYWGQGTLVTVSA VL: DIVMTQSPSSLTVTAGEKVTMSCKSSQSLLNSGNQKNYLTWYQQKPGQPPKLLIYWASTRESGVPDRFTGSGSGTDFTLTISSVQAEDLAVYYCQNDYYYPLTFGSGTKLEIK", "values": [{"measurement": "EC50", "setting": "[1]", "value": 19.1, "unit": "µg/mL"}, {"measurement": "binding percentage vs wild-type CLDN18.2", "setting": "[2]", "value": 59.8, "unit": "%"}, {"measurement": "binding percentage vs wild-type CLDN18.2", "setting": "[3]", "value": 51, "unit": "%"}, {"measurement": "binding percentage vs wild-type CLDN18.2", "setting": "[4]", "value": 2.32, "unit": "%"}, {"measurement": "binding percentage vs wild-type CLDN18.2", "setting": "[5]", "value": 35.2, "unit": "%"}, {"measurement": "binding percentage vs wild-type CLDN18.2", "setting": "[6]", "value": 57.5, "unit": "%"}, {"measurement": "binding percentage vs wild-type CLDN18.2", "setting": "[7]", "value": 52.5, "unit": "%"}, {"measurement": "binding percentage vs wild-type CLDN18.2", "setting": "[8]", "value": 78, "unit": "%"}, {"measurement": "binding percentage vs wild-type CLDN18.2", "setting": "[9]", "value": 79.9, "unit": "%"}, {"measurement": "binding percentage vs wild-type CLDN18.2", "setting": "[10]", "value": 54.8, "unit": "%"}, {"measurement": "binding percentage vs wild-type CLDN18.2", "setting": "[11]", "value": 128, "unit": "%"}, {"measurement": "binding percentage vs wild-type CLDN18.2", "setting": "[12]", "value": 21.9, "unit": "%"}, {"measurement": "binding percentage vs wild-type CLDN18.2", "setting": "[13]", "value": 76.8, "unit": "%"}, {"measurement": "binding percentage vs wild-type CLDN18.2", "setting": "[14]", "value": 51.6, "unit": "%"}, {"measurement": "binding percentage vs wild-type CLDN18.2", "setting": "[15]", "value": 60.7, "unit": "%"}, {"measurement": "binding percentage vs wild-type CLDN18.2", "setting": "[16]", "value": 23.1, "unit": "%"}, {"measurement": "binding percentage vs wild-type CLDN18.2", "setting": "[17]", "value": 70, "unit": "%"}, {"measurement": "binding percentage vs wild-type CLDN18.2", "setting": "[18]", "value": 99, "unit": "%"}, {"measurement": "binding percentage vs wild-type CLDN18.2", "setting": "[19]", "value": 15, "unit": "%"}, {"measurement": "binding percentage vs wild-type CLDN18.2", "setting": "[20]", "value": 85.6, "unit": "%"}, {"measurement": "binding percentage vs wild-type CLDN18.2", "setting": "[21]", "value": 13.6, "unit": "%"}, {"measurement": "binding percentage vs wild-type CLDN18.2", "setting": "[22]", "value": 82.1, "unit": "%"}, {"measurement": "binding percentage vs wild-type CLDN18.2", "setting": "[23]", "value": 75.4, "unit": "%"}, {"measurement": "binding percentage vs wild-type CLDN18.2", "setting": "[24]", "value": 73.6, "unit": "%"}, {"measurement": "binding percentage vs wild-type CLDN18.2", "setting": "[25]", "value": 77.2, "unit": "%"}, {"measurement": "binding percentage vs wild-type CLDN18.2", "setting": "[26]", "value": 39.4, "unit": "%"}, {"measurement": "binding percentage vs wild-type CLDN18.2", "setting": "[27]", "value": 59.4, "unit": "%"}, {"measurement": "binding percentage vs wild-type CLDN18.2", "setting": "[28]", "value": 87.2, "unit": "%"}, {"measurement": "binding percentage vs wild-type CLDN18.2", "setting": "[29]", "value": 100, "unit": "%"}, {"measurement": "binding percentage vs wild-type CLDN18.2", "setting": "[30]", "value": 39.1, "unit": "%"}, {"measurement": "binding percentage vs wild-type CLDN18.2", "setting": "[31]", "value": 41.6, "unit": "%"}, {"measurement": "binding percentage vs wild-type CLDN18.2", "setting": "[32]", "value": 64.4, "unit": "%"}, {"measurement": "binding percentage vs wild-type CLDN18.2", "setting": "[33]", "value": 71.3, "unit": "%"}, {"measurement": "binding percentage vs wild-type CLDN18.2", "setting": "[34]", "value": 96.3, "unit": "%"}, {"measurement": "binding percentage vs wild-type CLDN18.2", "setting": "[35]", "value": 63.4, "unit": "%"}, {"measurement": "binding result", "setting": "[36]", "value": "no binding"}]}
